Source: PMC11023358

Target: H2A.Z variant containing recombinant nucleosomes (UniProt P0C0S5)
Assay: pull-down; nucleosomes (2.5 μg) pre-bound to Dynabeads M-280 streptavidin; CFDP1 protein (10 μm) added; 4 h at 4°C; 20 mM Hepes pH 8.0, 150 mM NaCl, 0.2 mM EDTA, 20% glycerol, 0.1% NP40, 1 mM DTT; wash with 200 mM NaCl; immunoblot, normalized to H4

HIS tagged full-length CFDP1 protein (mouse craniofacial development protein 1) (from UniProt O88271 1-295) (natural protein)
fold binding over H2A canonical nucleosomes (normalized to H4 levels): 3.3 fold
